Target: recombinant human ICAM-5 Fc Chimera (human) (UniProt Q9UMF0)
Assay: pull-down; ICAM-5 Fc chimera covalently attached to magnetic Dynabeads; incubated with the 1.11 (membrane-associated) or 1.20 g/cm^3 (naked) viral density fraction for 1 h at 33°C, then overnight at 4°C; beads rinsed 2x for 10 min in PBS; bound virus read as viral titer (TCID50) after PBS plus 0.1% NP-40; control: nonspecific antibody-coated beads

Sequence of UniProt Q9UMF0 (Q9UMF0 32-835, stated change not applied): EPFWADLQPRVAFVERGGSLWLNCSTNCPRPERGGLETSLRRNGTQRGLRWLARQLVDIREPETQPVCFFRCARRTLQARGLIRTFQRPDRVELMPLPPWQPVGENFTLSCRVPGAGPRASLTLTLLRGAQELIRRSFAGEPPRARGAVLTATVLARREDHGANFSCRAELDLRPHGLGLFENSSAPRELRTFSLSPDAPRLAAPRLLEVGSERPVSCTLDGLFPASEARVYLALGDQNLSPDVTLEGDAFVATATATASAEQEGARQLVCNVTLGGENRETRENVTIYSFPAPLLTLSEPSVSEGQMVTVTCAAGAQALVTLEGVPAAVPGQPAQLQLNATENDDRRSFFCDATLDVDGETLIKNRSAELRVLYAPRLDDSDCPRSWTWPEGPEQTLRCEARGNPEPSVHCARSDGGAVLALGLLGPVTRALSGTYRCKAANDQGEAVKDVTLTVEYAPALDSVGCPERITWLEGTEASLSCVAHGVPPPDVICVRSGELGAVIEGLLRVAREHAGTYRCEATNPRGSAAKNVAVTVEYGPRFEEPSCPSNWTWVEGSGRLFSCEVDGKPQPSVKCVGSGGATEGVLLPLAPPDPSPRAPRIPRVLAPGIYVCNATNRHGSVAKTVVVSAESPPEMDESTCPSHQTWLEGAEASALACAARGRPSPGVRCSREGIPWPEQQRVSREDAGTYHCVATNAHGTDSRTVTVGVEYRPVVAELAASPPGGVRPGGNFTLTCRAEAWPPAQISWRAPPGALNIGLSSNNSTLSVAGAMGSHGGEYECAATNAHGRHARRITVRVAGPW

Enterovirus D68 (EV-D68) viral particles, strain US/MO/14-18947 (complex)
fold viral titer immunoprecipitated over control beads: 1000 fold

— article PMC8849102
